For one assay, the target named is T1, SF162 gp120 (HIV-1 SF162, UniProt P19550 32-502).
T1 construct: domain: gp120; also called SF 162 (B)
The assay can be described thus: 125I-MIP-1β competition on activated CD4+ T cells.

For a further assay, the target named is T2, soluble CD4 (UniProt P01730 26-394).
T2 construct: also called sCD4
The assay can be described thus: 125I-MIP-1β competition on activated CD4+ T cells.

Description for SF162 gp120: (§1) PBMCs were isolated from blood donors by Ficoll-Hypaque centrifugation, and stimulated for 2-3 days with phytohaemagglutnin (5 μg ml⁻¹) and IL-2 (100 U ml⁻¹) (Roche). CD4⁺ T cells were purified from the activated PBMCs by positive selection using anti-CD4 immunomagnetic beads (Dynal Inc.). […] The cells were screened for CCR-5-defective alleles(14), and only cells from wild-type donors were used (except when specified).
(§2) Unlabelled ligand or gp120 (mixed with monoclonal antibodies when appropriate) was added to the cells immediately before radiolabelled ligand was added. Anti-CD4 monoclonal antibodies were added to the cells simultaneously with gp120. These cells were then separated from unbound ligand by centrifugation (60 s, 14, 000 g) through oil (80% silicone oil, Aldrich; 20% mineral oil, Sigma), and the radioactivity in the cell pellet was determined by gamma counting. […] Each experiment was repeated at least twice using cells from different donors.
Description for soluble CD4: as §1, §2

B1: chemokine receptor C-C CKR-5 (human) (receptor)
chain: not shown
notes: whole, on cells; also called CCR-5; CCR5
Turning to B1, the values for the binding result in the assay with SF162 gp120 and with soluble CD4 were “binds” and “no binding (tested: 50 µg ml^-1)”, respectively.

Source of the values: patent US20040086528A1 (PROGENICS PHARMACEUTICALS, published 2004).
